Publication PMC2755957 (The Journal of Biological Chemistry, 2009)
Changes are numbered by the printed parent chain. Names may count otherwise.

T1: mouse Δ1–24-L-PGDS (lipocalin type prostaglandin D synthase) (Mus musculus, UniProt O09114, S45A/S81A/T67A)
T1 sequence (O09114 25-189 S45A/T67A/S81A): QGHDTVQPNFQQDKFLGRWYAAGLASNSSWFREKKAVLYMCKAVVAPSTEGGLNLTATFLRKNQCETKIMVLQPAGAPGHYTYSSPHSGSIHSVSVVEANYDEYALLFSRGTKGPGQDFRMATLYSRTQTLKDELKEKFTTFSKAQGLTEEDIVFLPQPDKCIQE

B1: mouse Δ1–24-L-PGDS (lipocalin type prostaglandin D synthase) (Mus musculus; W54A) (protein)
chain: T1 sequence (O09114 25-189 S45A/T67A/S81A) with A21S, W30A, A43T, A57S
B2: mouse Δ1–24-L-PGDS (lipocalin type prostaglandin D synthase) (Mus musculus; S45A/S81A/T67A) (protein)
chain: T1 sequence (O09114 25-189 S45A/T67A/S81A)
B3: mouse Δ1–24-L-PGDS (lipocalin type prostaglandin D synthase) (Mus musculus; T67A) (protein)
chain: T1 sequence (O09114 25-189 S45A/T67A/S81A) with A21S, A57S
B4: mouse Δ1–24-L-PGDS (lipocalin type prostaglandin D synthase) (Mus musculus; H111A) (protein)
chain: T1 sequence (O09114 25-189 S45A/T67A/S81A) with A21S, A43T, A57S, H87A
B5: mouse Δ1–24-L-PGDS (lipocalin type prostaglandin D synthase) (Mus musculus; H116A) (protein)
chain: T1 sequence (O09114 25-189 S45A/T67A/S81A) with A21S, A43T, A57S, H92A
B6: mouse Δ1–24-L-PGDS (lipocalin type prostaglandin D synthase) (Mus musculus; S45A) (protein)
chain: T1 sequence (O09114 25-189 S45A/T67A/S81A) with A43T, A57S
B7: mouse Δ1–24-L-PGDS (lipocalin type prostaglandin D synthase) (Mus musculus; S81A) (protein)
chain: T1 sequence (O09114 25-189 S45A/T67A/S81A) with A21S, A43T
B8: Δ^1–24-L-PGDS + P110A (Mus musculus; P110A) (protein)
chain: MAALRMLWMGLVLLGLLGFPQTPAQGHDTVQPNFQQDKFLGRWYSAGLASNSSWFREKKAVLYMCKTVVAPSTEGGLNLTSTFLRKNQCETKIMVLQPAGAPGHYTYSSAHSGSIHSVSVVEANYDEYALLFSRGTKGPGQDFRMATLYSRTQTLKDELKEKFTTFSKAQGLTEEDIVFLPQPDKCIQE
B9: Δ^1–24-L-PGDS + T67A/S81A (Mus musculus; S81A/T67A) (protein)
chain: B8 chain with T67A, S81A, A110P
B10: Δ^1–24-L-PGDS + S45A/S81A (Mus musculus; S45A/S81A) (protein)
chain: B8 chain with S45A, S81A, A110P
B11: Δ^1–24-L-PGDS + S45A/T67A (Mus musculus; S45A/T67A) (protein)
chain: B8 chain with S45A, T67A, A110P

What follows are molecules tested on [H][C@]12C[C@]([H])(OO1)[C@H](C/C=C\CCCC(=O)O)[C@H]2/C=C/[C@@H](O)CCCCC (assay: purified protein, by the assay type). Settings: pH 8.0; 25.0 °C.

Molecule | Km [µM] | Vmax [µmol/min/mg]
B1 | 1.3 ± 0.5 | 3.6
B2 | 1.2 ± 0.1 | 0.5
B3 | 2.8 ± 0.9 | 2.8
B4 | 1.4 ± 0.4 | 5.1
B5 | 1.4 ± 0.1 | 4.4
B6 | 0.5 ± 0.2 | 2.3
B7 | 1.5 ± 0.4 | 4.7
B8 | 1.6 ± 0.5 | 4.8
B9 | 2.1 ± 0.2 | 1.3
B10 | 1.2 ± 0.3 | 1.5
B11 | 2.1 ± 0.6 | 1.6

These molecules were tested against T1, mouse Δ1–24-L-PGDS (lipocalin type prostaglandin D synthase) (assay: biochemical). Settings: not given.

Molecule | Kd [nM]
CC1=C(/C=C/C(C)=C/C=C/C(C)=C/C(=O)O)C(C)(C)CCC1 [all-trans-retinoic acid] | 418 ± 124
